Where a chain is given by its changes, count along the chain named.
B1: HBC34-V7 (antibody, V domains shown)
VH: ELQLVESGGGWVQPGGSQRLSCAASGRIFRSFYMSWVRQAPGKGLEWVATINQDGSEKLYVDSVKGRFTISRDNAKNSLFLQMNNLRVEDTAVYYCAAWSGNSGGMDVWGQGTTVSVSS
VL: SYELTQPPSVSVSPGQTVSIPCSGDKLGNKNVCWFQHKPGQSPVLVIYEVKYRPSGIPERFSGSNSGNTATLTISGTQAMDEAAYFCQTFDSTTVVFGGGTRLTVL
notes: also called variant 7; HMB34-V7
B2: HBC34 (antibody, V domains shown)
VH: B1 VH
VL: B1 VL with F90W
notes: also called human monoclonal antibody HBC34; WT

Experiments:
[1] = target: HBsAg of HBV genotype D (GenBank J02203, ayw3) (hepatitis B virus, genotype D, UniProt P03138 164-389); test: flow cytometry, permeabilized transfected Hep2 cells, 5000 to 7 ng/ml
HBsAg P120T = HBsAg P120T (hepatitis B virus, genotype D, UniProt Q913A6 175-400); test: flow cytometry, permeabilized transfected Hep2 cells, 5 µg/ml

| Binder | binding result [1] | binding result (HBsAg P120T) |
| --- | --- | --- |
| B1 | binds | – |
| B2 | – | binds |
